In PMC10085679, “Filament assembly underpins the double-stranded DNA specificity of AIM2-like receptors”:

Tests used:
IFI16FL [1] = molecular target: T1, IFI16FL (Homo sapiens, UniProt Q16666-2 1-729); experiment: competition fluorescence anisotropy; unlabelled competitor against 6 nM 24-bp FAM-dsDNA, 500 nM protein; 160 mM KCl (60 mM KCl for IFI16HinAB); buffer, pH and temperature not given in the available text; settings: protein: recombinant; tags: C-terminal His6
IFI16HinAB [2] = molecular target: T2, IFI16HinAB (Homo sapiens, UniProt Q16666-2 159-729); experiment: competition fluorescence anisotropy; unlabelled competitor against 6 nM 24-bp FAM-dsDNA, 1000 nM protein; 160 mM KCl (60 mM KCl for IFI16HinAB); buffer, pH and temperature not given in the available text; settings: protein: recombinant
T2 sequence (Q16666 other isoform, or with tags, fused parts or gaps): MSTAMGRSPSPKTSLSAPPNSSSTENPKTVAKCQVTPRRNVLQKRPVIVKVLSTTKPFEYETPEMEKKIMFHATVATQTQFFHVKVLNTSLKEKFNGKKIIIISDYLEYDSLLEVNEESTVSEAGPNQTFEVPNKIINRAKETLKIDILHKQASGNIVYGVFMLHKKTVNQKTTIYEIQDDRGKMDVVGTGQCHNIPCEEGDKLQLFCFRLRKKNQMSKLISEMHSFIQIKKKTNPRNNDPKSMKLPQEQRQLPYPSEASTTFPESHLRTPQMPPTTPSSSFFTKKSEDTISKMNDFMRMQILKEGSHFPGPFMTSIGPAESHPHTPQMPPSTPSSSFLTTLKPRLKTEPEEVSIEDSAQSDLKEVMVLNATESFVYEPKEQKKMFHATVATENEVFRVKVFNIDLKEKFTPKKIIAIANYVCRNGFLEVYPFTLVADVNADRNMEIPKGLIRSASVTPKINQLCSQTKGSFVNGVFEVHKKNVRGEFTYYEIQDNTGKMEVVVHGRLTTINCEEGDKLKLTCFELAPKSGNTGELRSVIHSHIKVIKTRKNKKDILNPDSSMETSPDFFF

AIM2FL [3] = molecular target: T3, AIM2FL (Homo sapiens, UniProt O14862 1-343); experiment: fluorescence anisotropy; 160 mM KCl; 60 mM KCl for IFI16HinAB; FAM probe 3-6 nM (FA) or 20 nM (EMSA); binding buffer pH and temperature not in the material; settings: protein: recombinant
T3 sequence: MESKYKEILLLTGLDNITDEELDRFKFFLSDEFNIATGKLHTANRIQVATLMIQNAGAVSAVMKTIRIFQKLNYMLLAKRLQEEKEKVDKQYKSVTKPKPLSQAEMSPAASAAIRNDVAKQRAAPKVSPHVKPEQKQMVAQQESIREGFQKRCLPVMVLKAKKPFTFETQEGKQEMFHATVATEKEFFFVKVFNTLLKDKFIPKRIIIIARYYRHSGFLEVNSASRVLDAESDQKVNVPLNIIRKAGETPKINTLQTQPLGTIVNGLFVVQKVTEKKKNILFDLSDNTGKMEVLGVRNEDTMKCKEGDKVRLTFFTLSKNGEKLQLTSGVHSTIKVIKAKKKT

IFI16FL [4] = molecular target: T1, IFI16FL; experiment: competition; last row of Table S10, presumably against 60-bp FAM-dsDNA; 160 mM KCl; 60 mM KCl for IFI16HinAB; FAM probe 3-6 nM (FA) or 20 nM (EMSA); binding buffer pH and temperature not in the material; settings: protein: recombinant; tags: C-terminal His6
AIM2FL [5] = molecular target: T3, AIM2FL; experiment: fluorescence anisotropy; 160 mM KCl (60 mM KCl for IFI16HinAB); buffer, pH and temperature not given in the available text; settings: protein: recombinant
AIM2HIN [6] = molecular target: T4, AIM2HIN (Homo sapiens, UniProt O14862 144-343); experiment: as above; settings: protein: recombinant
T4 sequence: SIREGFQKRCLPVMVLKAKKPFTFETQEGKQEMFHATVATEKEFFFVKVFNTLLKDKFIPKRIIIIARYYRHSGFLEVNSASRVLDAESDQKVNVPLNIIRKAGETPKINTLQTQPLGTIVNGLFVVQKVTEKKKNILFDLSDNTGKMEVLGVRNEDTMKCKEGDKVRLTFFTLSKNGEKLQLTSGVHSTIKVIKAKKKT

IFI16HinAB [7] = molecular target: T2, IFI16HinAB; experiment: as above; settings: protein: recombinant
IFI16FL [8] = molecular target: T1, IFI16FL; experiment: as above; settings: protein: recombinant; tags: C-terminal His6
AIM2HIN [9] = molecular target: T4, AIM2HIN; experiment: competition fluorescence anisotropy; unlabelled competitor against 6 nM 24-bp FAM-dsDNA, 625 nM protein; 160 mM KCl (60 mM KCl for IFI16HinAB); buffer, pH and temperature not given in the available text; settings: protein: recombinant
AIM2FL [10] = molecular target: T3, AIM2FL; experiment: competition fluorescence anisotropy; unlabelled competitor against 6 nM 24-bp FAM-dsDNA, 100 nM protein; 160 mM KCl (60 mM KCl for IFI16HinAB); buffer, pH and temperature not given in the available text; settings: protein: recombinant
AIM2HIN [11] = molecular target: T4, AIM2HIN; experiment: competition fluorescence anisotropy; unlabelled competitor against 6 nM 60-bp FAM-dsDNA, 400 nM protein; 160 mM KCl (60 mM KCl for IFI16HinAB); buffer, pH and temperature not given in the available text; settings: protein: recombinant
IFI16HinAB [12] = molecular target: T2, IFI16HinAB; experiment: as above; settings: protein: recombinant

T1 sequence (Q16666 other isoform, or with tags, fused parts or gaps): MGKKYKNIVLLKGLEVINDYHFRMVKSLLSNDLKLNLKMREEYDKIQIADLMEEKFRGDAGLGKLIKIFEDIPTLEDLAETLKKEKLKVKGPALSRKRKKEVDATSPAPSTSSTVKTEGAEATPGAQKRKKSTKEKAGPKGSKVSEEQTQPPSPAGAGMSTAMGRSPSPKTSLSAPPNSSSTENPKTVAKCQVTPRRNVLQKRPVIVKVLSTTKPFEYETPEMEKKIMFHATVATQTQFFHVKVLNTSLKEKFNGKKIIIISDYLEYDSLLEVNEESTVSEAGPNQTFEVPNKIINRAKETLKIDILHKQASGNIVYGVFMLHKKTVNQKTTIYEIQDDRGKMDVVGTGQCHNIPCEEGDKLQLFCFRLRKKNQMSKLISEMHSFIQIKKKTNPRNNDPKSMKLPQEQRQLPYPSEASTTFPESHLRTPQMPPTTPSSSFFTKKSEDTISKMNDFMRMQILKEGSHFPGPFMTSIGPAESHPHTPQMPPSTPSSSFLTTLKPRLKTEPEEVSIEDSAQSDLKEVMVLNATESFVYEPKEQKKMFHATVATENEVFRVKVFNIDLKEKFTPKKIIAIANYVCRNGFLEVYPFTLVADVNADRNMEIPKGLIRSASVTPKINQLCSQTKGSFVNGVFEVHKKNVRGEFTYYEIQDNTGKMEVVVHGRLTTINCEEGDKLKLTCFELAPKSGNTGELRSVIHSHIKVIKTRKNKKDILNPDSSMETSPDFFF

B1: 60-bp DNA:RNA hybrid (DNA:RNA)
DNA: TAAGACACGATGCGATAAAATCTGTTTGTAAAATTTATTAAGGGTACAAATTGCCCTAGC
RNA: GCUAGGGCAAUUUGUACCCUUAAUAAAUUUUACAAACAGAUUUUAUCGCAUCGUGUCUUA
IC50 (IFI16FL [1]): 239 ± 31.9 nM
IC50 (IFI16HinAB [2]): 663 ± 64.6 nM
Kd (AIM2FL [3]): 40 ± 10 nM
IC50 (IFI16FL [4]): 975 ± 48.1 nM
Kd (AIM2FL [5]): 40 ± 10 nM
Kd (AIM2HIN [6]): 800 ± 100 nM
Kd (IFI16HinAB [7]): 60 ± 10 nM
Kd (IFI16FL [8]): 35 ± 15 nM
IC50 (AIM2HIN [9]): 100 ± 9 nM
IC50 (AIM2FL [10]): 19.6 ± 0.44 nM
IC50 (AIM2HIN [11]): 350 ± 44 nM
IC50 (IFI16HinAB [12]): 623 ± 106 nM
